In US20030236184A1:

Legend:
[1] = target: type-II GnRH binding site in the pituitary of adult male land-locked P. marinus (P. marinus (sea lamprey)); assay: competition with iodinated [DAla6,Pro9Net]-mammalian GnRH tracer, pituitary of adult male P. marinus; Ki from IC50
[2] = target: type-I GnRH binding site in the pituitary of adult male land-locked P. marinus (P. marinus (sea lamprey)); assay: as above
[3] = target: type-II GnRH binding site in the pituitary of adult male land-locked P. marinus (P. marinus (sea lamprey)); assay: self-displacement of iodinated [DAla6,Pro9Net]-mammalian GnRH tracer, pituitary of adult male P. marinus; Ki from IC50
[4] = target: type-I GnRH binding site in the pituitary of adult male land-locked P. marinus (P. marinus (sea lamprey)); assay: as above

Ki [1] | Ki [2] | Ki [3] | Ki [4] | Substance
52200 nM | 0.03 nM | – | – | [D-Phe^2,6, Pro^3]-lGnRH-III (peptide)
655 nM | 0.00383 nM | – | – | [D-Phe^2, Gly^6]-lGnRH-III (peptide)
8940 nM | 7.1 nM | – | – | [Ac-Delta-3Pro, 4FDPhe^2-D-Trp^3,6]-lGnRH-III (peptide)
– | – | 89 nM | 0.00311 nM | [DAla^6, Pro^9Net]-mammalian GnRH (peptide)
5650 nM | 1.37 nM | – | – | [D-Phe^2, Gly^6]-lGnRH-I (peptide)
